In article PMC2195916 one finds percent decrease of C4bp binding to MS11 (C4b in 60-fold molar excess), percent decrease of binding in 575 mM NaCl and percent decrease of binding with 125 units of heparin data, which are given here for two substances.

Assay [1] concerns the target C4b-binding protein (C4bp) (human) (UniProt P04003). Briefly: flow cytometry on cells. For orientation: A flow cytometer gives signals particle by particle.
The target of assay [2] is Por1B of N. gonorrhoeae strain MS11 (Neisseria gonorrhoeae strain MS11). As to the kind of experiment: flow cytometry on cells.

C4b (natural protein): in assay [1], the percent decrease of C4bp binding to MS11 (C4b in 60-fold molar excess) stood at 50%. Take “C4b-binding protein (C4bp) (from UniProt P04003 49-597; P20851 18-252) (complex)”: in assay [2], the percent decrease of binding in 575 mM NaCl was found to be 85% and the percent decrease of binding with 125 units of heparin is above 90%.
